T1: Recombinant human MerTK human Fc Chimera protein (R&D systems, Cat #391-MR-100) (human, UniProt Q12866 26-499, limits assumed)
T1 construct: Bought; also called recombinant human MerTK protein; MerTK-Fc
T1 sequence: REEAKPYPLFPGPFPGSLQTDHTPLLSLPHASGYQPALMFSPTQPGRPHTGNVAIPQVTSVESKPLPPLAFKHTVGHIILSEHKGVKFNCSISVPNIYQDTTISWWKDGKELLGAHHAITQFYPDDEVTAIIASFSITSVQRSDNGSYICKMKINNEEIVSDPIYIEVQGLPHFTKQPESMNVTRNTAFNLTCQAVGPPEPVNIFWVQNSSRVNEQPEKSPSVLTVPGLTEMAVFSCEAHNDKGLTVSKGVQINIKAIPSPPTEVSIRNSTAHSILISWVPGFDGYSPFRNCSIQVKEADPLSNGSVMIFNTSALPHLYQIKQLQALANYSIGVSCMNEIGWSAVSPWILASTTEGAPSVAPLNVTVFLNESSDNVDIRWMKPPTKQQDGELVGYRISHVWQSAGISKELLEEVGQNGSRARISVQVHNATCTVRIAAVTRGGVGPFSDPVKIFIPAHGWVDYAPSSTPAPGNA

T2: human Axl ECD construct (Full Axl) with linker+His+Avi tag (human, UniProt P30530 26-451)
T2 construct: tested as Expi293 supernatant; also called ECD domain of human Axl
T2 sequence: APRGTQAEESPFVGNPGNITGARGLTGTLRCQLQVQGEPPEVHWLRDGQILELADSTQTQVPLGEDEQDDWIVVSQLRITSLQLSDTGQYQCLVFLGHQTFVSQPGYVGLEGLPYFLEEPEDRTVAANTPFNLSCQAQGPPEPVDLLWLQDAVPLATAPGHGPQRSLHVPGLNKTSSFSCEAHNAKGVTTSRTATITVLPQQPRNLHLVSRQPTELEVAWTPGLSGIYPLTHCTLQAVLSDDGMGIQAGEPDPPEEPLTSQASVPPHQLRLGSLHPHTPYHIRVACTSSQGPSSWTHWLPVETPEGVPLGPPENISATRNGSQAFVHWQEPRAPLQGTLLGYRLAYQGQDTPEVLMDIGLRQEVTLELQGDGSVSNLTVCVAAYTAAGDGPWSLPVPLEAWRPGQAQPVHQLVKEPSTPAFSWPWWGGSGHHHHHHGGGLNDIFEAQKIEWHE


Legend:
[1] = target: T1, Recombinant human MerTK human Fc …; assay: competition ELISA: His-tagged ProS (20 ug/ml) binding to captured human MerTK-Fc, anti-His-HRP detection; blocked ligand ProS
Method: Rabbit anti-human IgG polyclonal antibody (Jackson ImmunoResearch, Cat #309-005-008) was captured to a high-protein binding plate at 2 μg/ml 4° C. overnight. After washing with 0.05% Tween20 in PBS three times, 5% BSA in PBS was added for 1 hour. Recombinant human MerTK human Fc Chimera protein (R&D systems, Cat #391-MR-100) was added at 2 μg/ml for 1 hour and the plates were then washed. Anti-MerTK antibodies were titrated to final concentration range of between 66.6 nM to 4 pM and then 40 μl of serially diluted antibody and 40 μl of His tag-conjugated recombinant Gas6 protein (R&D systems, Cat #885-GSB-050) at 3 μg/ml or His tag-conjugated recombinant ProS protein (R&D systems, Cat #9489-PS-100) at 20 μg/ml. After a further incubation for 1 hour, plates were washed and incubated for 1 hour with HRP-conjugated anti-6×His tag antibody (Abcam, Cat #ab1187). Plates were then washed and an HRP substrate (TMB) was used to develop the plates. After sufficient color change was observed, the reaction was stopped by adding 50 μl 2N H₂SO₄ and the OD was measured using a spectrophotometer (BioTek).

[2] = target: T2, human Axl ECD construct (Full Axl) with …; assay: SPR, Carterra LSA, antibody immobilised, construct supernatant injected
Method: Binding of anti-MerTK antibodies of the present disclosure to these domain-swapped chimera or deletion mutants (prepared as described above) was tested by Surface Plasmon Resonance (SPR) using Carterra LSA. Purified anti-MerTK antibodies were immobilized in duplicate on a HC30M chip (Carterra) by amine coupling, following the manufacturer's instructions (described previously). Supernatants containing the constructs were diluted 1:1 with running buffer containing 0.5 mg/mL BSA (HBS-TE, Carterra) and injected over the immobilized antibodies. The surface was regenerated with 10 mM Glycine pH2.0 after each construct injection. Sensorgrams were analyzed using Carterra Epitope software to identify patterns of construct binding. Loss of binding to MerTK constructs with domains deleted or swapped in from Axl and/or gain of binding to Axl constructs with MerTK domains swapped in were evaluated. Data from these studies was used to construct a domain binding map for anti-MerTK antibodies and their binding to various domains of human MerTK.

IC50 (read off the curve) [1] | binding result [2] | Binder
~5 nM | – | MTK-18 (antibody, human IgG1, V domains shown) VH: QIQLVQSGPELKKPGETVKISCKASGYTFTHYGMTWVKQAPGKGLKWMGWINTYTGEPTYADDFKGRFAFSLETSASTAYLQINNLKNEDTATYFCARGGGQLGLRPLDYWGQGTTLTVSS VL: DIQMTQTTSSLSASLGDRVTFSCRASQAISNYLNWYQQKPDGTVKLLIYYTSRLHSGVPSRFSGSGSGTDYSLTISNLEQEDIATYFCQQGNTLPWTFGGGTKLEIK
– | no binding | MTK-21 (antibody, human IgG1, V domains shown) VH: QIQLVQSGPELKKPGETVKISCKASGYTFTNFGMTWVRQAPGMDLKWMGWINTYTGEPKYADDFKGRFALSLETSASTAYLQITNFKNEDTATYFCARGGGRLGLRPLDYWGQGTTLTVSS VL: DIQMTQTTSSLSASLGDRVTISCRASQDINNYLNWYQQKPDGTVKLLIYYTSSLHSGVPSRFSGSGSGTDYSLTITNLEQEDIATYFCQQGNTLPWTFGGGTRLEIK
~4 nM | – | MTK-03 (antibody, human IgG1, V domains shown) VH: DVQLQESGPGLVKPSQSLSLTCSVTGYSITSGYYWNWIRQFPGNTLEWMGYMSFDGDNKFNPSLKNRISITRDTSKNQFFLRLNSVTTEDTATYYCARGGYNYGSTEANWGQGTLVTVSA VL: QIVLTQSPAIMSAFPGEKVTITCSASSSVNYMHWFQQKPGTSPKLWIYSTSNLASGVPARFSGSGSGTSYSLTISRMEAEDAATYYCQQRSSYPFTFGSGTKLEIK
~3 nM | – | MTK-07 (antibody, human IgG1, V domains shown) VH: DVQLQESGPGLVKPSQSLSLTCSVTGYSITSGYYWNWIRQFPGNTLEWMGYMSFDGDNKFNPSLKNRISITRDTSKNQFFLRLNSVTTEDTATYYCARGGYNYGSTEANWGQGTLVTVST VL: QIVLTQSPAIMSAFPGEKVTITCSASSSVTYMHWFQQKPGTSPKLWIFSTSNLASGVPARFSGSGSGTSYSLTISRMEAEDAATYYCQQRSSYPFTFGSGTKLEIK
– | no binding | MTK-30 (antibody, human IgG1, V domains shown) VH: QVQLQQPGTELVRPGASVKLSCKASGYTFTSYWMHWVKQRPGQGLEWIGNLNPNNGGTYYNEKFKSKATLTVDKSSSTAYMQLSSLTSEDSAVYYCARQILLYFDYWGQGTTLTVSS VL: DVLMTQTPLSLPVSLGDQASISCRSSQSIVHSNGDTYLEWYLQKPGQSPKLLIYKVSNRFSGVPDRFSGSGSGTDFTLKISRVEAEDLGVYYCFQGSHVPWTFGGGTKLEIK
– | no binding | MTK-29 (antibody, human IgG1, V domains shown) VH: QIQLVQSGPELKKPGETVKISCKSSGFTFTTYGMSWVKQAPGKGLKWMGWINTYSGVPTYTDDFKGRFAFSLETSASTASLQINNLKNEDTATYFCARYTNYGYFDYWGQGTTLTVSS VL: QIVLSQSPAILSASPGEKVTMTCRATSSVGYMHWYQQKPGSSPKPWIYATSNLASGVPARFSGSGSGTSYSLTISRVEAEHAATYYCQQWGSNPFTFGSGTKLEIK
– | no binding | MTK-15 (antibody, human IgG1, V domains shown) VH: QIQLVQSGPELKKPGETVKISCKASGYTFTNYGVHWVKQAPGKGLKWMGWINTYTGEPTYADDFKGRFAFSLETSASTAYLQINNLKNEDMATYFCARGNRYAYMDYWGQGTSVTVSS VL: QIVLSQSPAILSASPGEKVTMTCRASSSVSYMHWYQQKSGSSPKPWIYATSNLASGVPARFSGSGSGTSYSLTISRVEAEDAATYYCQQWSSNPRTFGGGTKLEIK
– | no binding | MTK-06 (antibody, human IgG1, V domains shown) VH: QIQLVQSGPELKKPGETVKISCKASGYTFTNYGMNWVKQAPGKGLKWMGWINTNTGEPTYAEEFKGRFAFSLETSASTAYLQINNLKNEDTATYFCARYYNYWYFDVWGAGTTVTVSS VL: QIVLSQSPAILSASPGEKVTMTCRASSSVSYMHWYQQKPGSSPKPWIYATSNLASGVPARFSGSGSGTSYSLTISRVEAEDAATYYCQQWSSKPPTFGGGTKLEIK
– | no binding | MTK-33 (antibody, human IgG1, V domains shown) VH: QVQLQQPGPELVRPGTSVKLSCKASGYTFTSYWMHWIKQRPGQGLEWIGVIDPSDNYINYNQKFKGKATLTVDTSSSTAYLQLSSLTSEDSAVYYCAREAGTRGYFDYWGQGTTLTVSS VL: SIVMTQTPKFLLVSAGDRVIITCKASQSVSNTVAWYQQKPGQSPKLLIYYASNRYTGVPDRFTGSGYGTDFTFTISTVQAEDLAVYFCQQDYRSPFTFGSGTQLEMK
5 to 8 nM | – | MTK-17 (antibody, human IgG1, V domains shown) VH: QIQLVQSGPELKKPGETVKISCKASGYTFTNFGMNWVKQAPGKGLKWMGWINTYTGEPTYADDFKGRFAFSLETSASTAYLQINNLKNEDTATYFCSRGAVLRAGAMDCWGQGTSVTVSS VL: DIQMTQSSSYLSVSLGGRVTITCKASDHINNWLAWYQQKPGNAPRLLISGATSLETGVPSRFSGSGSGKDYTLSITSLQTEDVATYYCQQYWSTPRTFGGGTKLEIK
– | no binding | MTK-10 (antibody, human IgG1, V domains shown) VH: QVTLKESGPGILQPSQTLSLTCSFSGFSLTTSGMGVGWIRQPSGKGLEWLAHIWSDDDKRSNPALKSRLTISQDSSTNQVFLKIASVDTADSATYYCSHLTPVREFAYWGPGTLVTVSE VL: DIQMTQTTSSLSASLGDRVTISCSASQGISNYLNWFQQKPDGTVKLLIYYTSRLHSGVPSRFSGSGSGTDFSLTISNLEPEDIATYYCQQYTKLPYTFGGGTKLEIK
– | no binding | MTK-16 (antibody, human IgG1, V domains shown) VH: LIQLVQSGPELKKPGETVKISCKASGYTFTNHGMNWVKQDPGKGLKWMGWINTYTGEPTYADDFKGRFVFSMETSASAAFLQINNLKNEDTATYFCARKGVTAARYFDYWGQGTTLTVSS VL: DIVMTQSPKFMSTSVGDRVSITCKASQNVRTAVAWYKKKPGQSPKALINLASNRHTGVPDRFTGSGSGTDFTLTISNVQSEDLADYFCLQHWNYPLTFGGGTKLEIK
